Reference: the supplement of paper PMC9170038

Tests used:
MS2 coat protein [1] = test: apparent KD of MS2 coat protein, switch ON state; designed switch direction (-1 OFF switch, 1 ON switch): -1; higher = weaker reporter binding; settings: FMN input: 0 or 200 uM; Eterna round: R93 (includes R88 designs)
How it was run: (§1)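 Apparent KD per design is the median of normalised cluster binding-curve fits. Designed RNA switches transcribed on-chip from Illumina sequencing clusters were titrated with SNAP-549-labelled MS2 coat protein in twofold steps from 0.7 or 1.5 nM to 3 µM, with 0.8–1.5 h down to 10–20 min per step. Buffer: 100 mM Tris-HCl pH 7.5, 80 mM KCl, 4 mM MgCl2, without or with constant ligand.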

MS2 coat protein [2] = test: apparent KD of MS2 coat protein, switch OFF state (with FMN for OFF switches, without FMN for ON switches); designed switch direction (-1 OFF switch, 1 ON switch): -1; higher = weaker reporter binding; settings: FMN input: 0 or 200 uM; Eterna round: R93 (includes R88 designs)
How it was run: as §1

Row | Sequence | apparent KD of MS2 coat protein (MS2 coat protein [1]) | apparent KD of MS2 coat protein (MS2 coat protein [2])
1 | AAAAAACAUGAGGAUCACCCAUGUAAGGAUAUGCUAAAAAACACGGAAAAACGUGAUAGCAGAAGGUACAAAAA [66%, Wbt, 31] | 22.6 nM | 33.4 nM
2 | AACAAGACAGGAUAUACAUGAGGAUCACCCAUGUGAGAAUAAAGUAGCGUAACACAAAGUAGAAGGGUCAUGGA [Ruby 7] | 29.7 nM | 57.6 nM
3 | AAAAAGUUAGGAUAUACAUGAGGAUCACCCAUGUACAUAUAUGGAGAAUAUAGUAGUAGUAGAAGGGACAAAAA [EX2 Malc#14] | 21 nM | 26.9 nM
4 | GGUUGGCGAGGAUAUACAUGAGGAUCACCCAUGUGAGAGAAUAAAGUGAGAAAGAAAAGUAGAAGGCGCUGACG [salish99-ex3-44] | 63.7 nM | 116 nM
5 | AGCUAGUGAGGAUAUACGAACAAGUAAACGGACUGUAAGGGACAUGAGGAUCACCCAUGUAGAAGGCACUAGCA [Diamond 59] | 28.6 nM | 74.5 nM
6 | UACGGACAUGAGGAUCACCCAUGUGAGGAUAUCGAUACCGAUAGCAUAAUAUAAUCGGCGAGAAGGCACAGCGU [JR_Exc001_Sub505] | 39.9 nM | 54.7 nM
7 | AAAAACGUAGGAUAUACAUGAAAAAAAAAAAAAAAAAAAAGACAUGAGGAUCACCCAUGUAGAAGGGCGAAAAA [water's exclusion 2] | 91.9 nM | 76.8 nM
8 | AAGAAAGCAGGAUAUACAUGAGGAUCACCCAUGUAAAAGAAAGAAAAGGGAAAGAAAAGUAGAAGGGCUAAGAA [User/Heqamaatre-setpenamun Ramesses IV] | 27.2 nM | 74.1 nM
9 | AAAACGGUAGGAUAUACGAAAAAAAAGGGAGAACAAAAGGGACAUGAGGAUCACCCAUGUAGAAGGACCAAAAA [Diamond 89] | 40.6 nM | 84.7 nM
10 | CUCUAGUUAGGAUAUGGAAGAAAAGAAAAGAAAGAAAAGAACCAGAAGGAACAUGAGGAUCACCCAUGUAAGAA [EteRNA is fun!] | 45.5 nM | 34 nM
11 | GAAAAGUCAGGAUAUGCAGACAAAGCAAAAAAGCAAUGUCUGCAGAAGGGACAUGAGGAUCACCCAUGUAAAAG [Mat - Exclusion 4 - Mayanna - D116] | 61.1 nM | 70.1 nM
12 | AGCUAACAUGAGGAUCACCCAUGUCAGGAUAUGCAAAGAUCGAUCGAACGAUCGAUAAGCAGAAGGGACACUGA [Amethyst 94] | 27.1 nM | 47.5 nM
13 | AAAAAGGUAGGAUAUACGAAAAAAAAGGGUAGAAAAAAAACACAUGAGGAUCACCCAUGUAGAAGGACCAAAAA [Ex 2 sub 1] | 26.3 nM | 77.4 nM
14 | AAAACGGUAGGAUAUACGAUUGGGAACUAGACCGAGAAACCACAUGAGGAUCACCCAUGUAGAAGGGCCAAAAA [Ex2 Malc#13] | 31.1 nM | 36.2 nM
15 | AAAAAACAUGAGGAUCACCCAUGUGAGGAUAUCCAAAAGUCAAAGAAAAAGACGAAAAGGAGAAGGCACAAAAA [Banishment 2 - Jieux - Exclusion 1] | 44.2 nM | 49.1 nM
16 | GGGUGGCGAGGAUAUACAUGAGGAUCACCCAUGUGAGAGAAAAAAGUGAGAAAGAAAAGUAGAAGGCGCUGCCG [salish99-ex3-56] | 47.9 nM | 329 nM
17 | AAAAGCACAGGAUAUACGGGAUUAUGACGAAAGUCAUAAAAACAUGAGGAUCACCCAUGUAGAAGGGUGCAAAA [Mod of Meechl's... 64% 2] | 191 nM | 248 nM
18 | GAAAAGUGAGGAUAUACAUGAGGAUCACCCAUGUGUAUAAAAAAAUACACAAAAGAAAGUAGAAGGCACUAAAA [Mat - Exclusion 3 - Mayanna mod - D111] | 25.8 nM | 65.9 nM
19 | AACAGUACAGGAUAUACAUGAGGAUCACCCAUGUAAAAUAAAUAAAAAUAAAAAGGGAGUAGAAGGGUACUGGA [Moding Maslow revisited (73) 19] | 37.2 nM | 50.3 nM
20 | AAAAAGUAAGGAUAUGCGAAUAAAUAAGAAGAAGAAAGAAAGCAGAAGGUACAUGAGGAUCACCCAUGUAAAAA [Ex 4 Tesla 1] | 36.3 nM | 22.5 nM
21 | AGAAACGAAGGAUAUACAUGAGGAUCACCCAUGUAAAGAAAGAGGAGAGCCACAAGAAGUAGAAGGUCGAAGAA [JR_Exc003_Sub007] | 27.4 nM | 50.7 nM
22 | CUCAAGUAAGGAUAUGCAAGAAAAGAAGAGAAAGAAAAGAAGCAGAAGGUACAUGAGGAUCACCCAUGUAAGAA [EteRNA is fun!] | 37.3 nM | 35.8 nM
23 | AAGAAAGGAGGAUAUACAUGAGGAUCACCCAUGUAAAAGAAAGAAGGGAAAGAGAAAAGUAGAAGGCCUAAGAA [Wahibre Psamtik I] | 32.7 nM | 31 nM

Row | Sequence | apparent KD of MS2 coat protein (MS2 coat protein [1]) | apparent KD of MS2 coat protein (MS2 coat protein [2])
24 | AGCUAGACAGGAUAUACGAACAUGUCAAAAGACGUAAGGGAACAUGAGGAUCACCCAUGUAGAAGGGUCUAGCA [Diamond 50] | 28.5 nM | 63.9 nM
25 | AAGAAGGCAGGAUAUACAUGAGGAUCACCCAUGUAAAAGAAAGAAAAGGGAAAGAAAAGUAGAAGGGCCAAGAA [Kamose] | 35.4 nM | 72.1 nM
26 | CAGGUACGAGGAUAUACAUAGAUACAGACACAUGUUCAAGUACAUGAGGAUCACCCAUGUAGAAGGCGUAUAUG [Mat - Same state - Mayanna Mod - D108] | 47.6 nM | 88.5 nM
27 | AAGAAGUCAGGAUAUACAUGAGGAUCACCCAUGUAAAAGAAAGAAAGGGAAAAGAAAAGUAGAAGGGACAAGAA [Usermaatre-akhenamun Ramesses VIII] | 18.2 nM | 25.5 nM
28 | AAAAGACAUGAGGAUCACCCAUGUUAGGAUAUGGAAAAACAAAAAAAAAAAAAAAAAACCAGAAGGAGCGAGGG [another 1 four] | 190 nM | 132 nM
29 | AAGACUACAGGAUAUACAUGAGGAUCACCCAUGUAACUGACAAGUAGAGUACGGAGAAGUAGAAGGGUAGUCAA [Ruby 34] | 14.9 nM | 17.6 nM
30 | AGCUAGUGAGGAUAUACGAACACGUAACAGGACUGUAAGGGACAUGAGGAUCACCCAUGUAGAAGGCACUAGCA [Diamond 61] | 33.9 nM | 77 nM
31 | AAAAAACAUGAGGAUCACCCAUGUAAGGAUAUCGUGCAGAAAAAAAAAAAAAACUGCACGAGAAGGUACUUGGA [Brourd - Exclusion 1 - Sub 3] | 43.1 nM | 87.9 nM
32 | CUAGUACAUGAGGAUCACCCAUGUCAGGAUAUUGGAUAUGCCAUGGAAAACAUGUUUACAAGAAGGGACUAUAG [EX1 Malc#22] | 32.9 nM | 36.4 nM
33 | GAUGAGUGAGGAUAUGUAAAAAAAAGAGAAGAGAAGAGAGAACAGAAGGCACAUGAGGAUCACCCAUGUAGGGA [Default title] | 226 nM | 322 nM
34 | AAGAAGUCAGGAUAUACAUGAGGAUCACCCAUGUAAAAGAAAGAAGGGAAAGAGAAAAGUAGAAGGGACAAGAA [Usermaatre-setpenamun Takelot III] | 31.9 nM | 19.9 nM
35 | GAAUGCAGAGGAUAUACGGGAUAGCAUCGAAAGAUGCUAAAACAUGAGGAUCACCCAUGUAGAAGGCUGCAGAA [JL Mod 02] | 58 nM | 144 nM
36 | CUCAAGUUAGGAUAUAGAAGAAAAGAAGAGAAAGAAAAGAACUAGAAGGAACAUGAGGAUCACCCAUGUAAGAA [EteRNA is fun!] | 31.2 nM | 20.5 nM
37 | AAGAAGUCAGGAUAUGCCAGAGAACAAGAAAGUGAAGAAUAGCAGAAGGGACAUGAGGAUCACCCAUGUAAAGA [Opal 11] | 46.9 nM | 34.5 nM
38 | AAGAAGAGAGGAUAUACAUGAGGAUCACCCAUGUAAAAGAAAGAAGGGAAAGAGAAAAGUAGAAGGCUCAAGAA [Usermaatre-setpenamun Rudamun] | 25.6 nM | 31 nM
39 | AAAAACGGAGGAUAUGCAAAAAAAAAAAAAAAAAAAAAAAAACAUGAGGAUCACCCAUGUAGAAGGCCGAAAAA [Diamond] | 25.6 nM | 36.9 nM
40 | AACAGGUCAGGAUAUGUGGAAAAAAUAAAAAAAAUAAAAACACAGAAGGGACAUGAGGAUCACCCAUGUUAACA [May 25] | 36.6 nM | 38.8 nM
41 | AAACCACAUGAGGAUCACCCAUGUCAGGAUAUGAACGAAAAUAAAUAAAAAUAAAAGUUCAGAAGGGACGAAAA [66%, Wbt, 15] | 39.2 nM | 37.2 nM
42 | AAAAUACAUGAGGAUCACCCAUGUGAGGAUAUGCUAUGGAAAAUAAAAAUAAAACAUAGCAGAAGGCACAAAAA [Denovo 13] | 37 nM | 56.7 nM
43 | AAAAAGAAAGGAUAUACGAACAUGUCAAAAGACGUGAAGGGACAUGAGGAUCACCCAUGUAGAAGGUUCAAAAA [JL Half Open 22] | 35.8 nM | 17.1 nM
44 | AAAAAGUGAGGAUAUGUCAAAAGUCACAAAAGUGACAAAAGACAGAAGGCACAUGAGGAUCACCCAUGUGAAAA [Mod of Eli - Late G + early G segment 3] | 26.8 nM | 38.8 nM
45 | AAAAAUGCAGGAUAUACGUACAUGUCAAAAGACGUGAAGGGACAUGAGGAUCACCCAUGUAGAAGGGUAAAGAA [JL Neck Breaker 15] | 237 nM | 59.8 nM
